Consider 18 sequences from a protein production outcome set (Wang et al. 2014).

The nature of this data set: label from the status in PepcDB records.

For the sequence “MASEFDLIQRYFRRAHPSAVLGVGDDAALIQPSPGMELAVSADMLVANTHFYPNIDPWLIGWKSLAVNISDMAAMGAQPRWATLTIALPEADEDWISKFAAGFFACAAQFDIALIGGDTTRGPLTISVQIMGETPPGASLLRSTARADDDIWVSGPLGDAALALAAIQGRYPLSDTELAACGKALHQPQPRVVLGQALRGLAHSALDISDGLLADLGHILEHSQVGAEVWLKAIPKSEVVSAHSQEVAIQKMILSGGDDYELCFTASTQHRQQIADIGRQLSLDMAVIGRITDTQQLVIHGLDDAPLTLKEHGFDHFA”, the protein production result is recorded as “not failed”.

As to “MASESSIDEKKKKAQVTQSNINKNTPQQLTDKDLFGNETTLAVSEEDIQAALDGDEFRVPLNSPVILVQSGNRAPETIMQEEMRKYYTVSTFSGIPDRQKPLTCNKNKDKNENEDVASAENMNWMQALRFVAAKGHQKAIIVYQDMLQTGKYDSALKSTVWSDYKNDKLTDAISLRYLVRFTLVDVATGEWATWSPVNYEYKVLPPLPDKNEASTTDMTEQQIMQLKQKTYKAMVKDLVNRYQLEHHHHHH”, the protein production result is listed as “failed”.

For “MASGSTQVKYLGIYQKMKQQILDGEYKINEKIPSSPILAEEFGVSVLTIKKALDLLVRDGYIIRRRGSGTVVQDWRQQEKARMIQTLTGTKAVYGSEVESKIIEFTIVGADEIIAEKLGISVGDFVYKIIRLRIIHSIPTIMEHTWMPIAVIPGVEASVLEESIYSYIQNKLGLKVGTSVVRVKGIRPDDKEKQFMNLTNQDFLMRVEQVAYLTDGRTFEYSYADHLPETFEFETVITAKSYKEA”, the protein production entry is on record as “failed”.

Take “MASHELDYRILGESMQTVEIELDPGETVIAEAGAMNYMTGDIRFTARMGDGSDGSLLGKLWSAGKRKLGGESVFMTHFTNEGQGKQHVAFAAPYPGSVVAVDLDDVGGRLFCQKDSFLCAAYGTRVGIAFTKRLGAGFFGGEGFILQKLEGDGLVFVHAGGTLIRRQLNGETLRVDTGCLVAFTDGIDYDVQLAGGLKSMLFGGEGLLLTTLKGSGTVWLQSLPFSRLAGRIYDATFRAREEVRTNNG”: the protein production entry is given as “not failed”. The result for “MASHISLKQLKVFTTITQHKTLTAASDSLFLSKAAVSMALSELEKQIGHHLFDRVNNRLILNQEGQKLLPLADELLNRAKDIESIFDGDQALSGQLRIGASDTIGNQVAPYLLSEFRQQTNHRSQSLFISNSAQICDMLTDYELDIALIEGKTLHPELQSTQFSEDEMCVICAPDYPAAHEGPVNLTELENSEWILREAGSGSREFFMRVVAPRLEHWHEAFQLNTTEALINSVSAGLGLGCLSRLSAEPAIRDGRVKLLDMPLDMKRRFWLLVHKEKYQSPLLKTFIEFCQDWERPTNLPLGNKSAK” reads “failed”; that for “MASHIVGYPRMGPKRELKFALESFWDGKSSADDLQKVSADLRSDIWKQMSAAGIKYIPSNTFSHYDQVLDTTAMLGAVPSRYGFTSGEIGLDVYFSMARGNASVPAMEMTKWFDTNYHYIVPELGPEVKFSYASHKAVNEYKEAKALGVETVPVLVGPVSYLLLSKLAKGVDKSFDLLSLLPKILPVYKEVIAELKAAGASWIQLDEPLFVMDLEGHKLQAFSGAYAELESTLSGLNVLVETYFADIPAEAYKTLTSLKGVTAFGFDLVRGTKTIDLIKSGFPQGKYLFAGVVDGRNIWANDLAASLITLQSLEGVVGKDKLVVSTSCSLLHTAVDLINETKLDAEIKSWLAFAAQKVVEVDALAKALAGQTNESFFTANADALSSRRSSPRVTNESVQKAAAALKGSDHRRTTEVSARLDAQQKKLNLPILPTTTIGSFPQTVELRRVRREYKAKKISEEDYVKAIKEEIKKVVDIQEDLDIDVLVHGEPERNDMVEYFGEQLSGFAFTANGWVQSYGSRCVKPPVIYGDVSRPKPMTVFWSSTAQSMTKRPMKGMLTGPVTILNWSFVRNDQPRHETCYQIALAIKDEVEDLEKGGIGVIQIDEAALREGLPLRKAEHSFYLDWAVHSFRITNCGVQDSTQIHTHMCYSNFNDIIHSIIDMDADVITIENSRSDEKLLSVFREGVKYGAGIGPGVYDIHSPRIPSTDEIADRINKMLAVLEQNILWVNPDCGLKTRKYTEVKPALKAMVDAAKLIRSQLGSAK”, “failed”; that for “MASHLFTRSRISLLKTLKPNPFTSASPIRAISGTPFLSQDPLLATESTDHDPSNHQSTSTPLPPNPATGSPLYQENWRSPIPNTPSFNQSLVPLGFLNQAPAPRIRALSETLDMNSLLNMFADWTASQRWSDMKQLFEVWVRSLDKNGKPNKPDVNLYNHYLRANLMMGASAGDMLDLVAPMEEFSVEPNTASYNLVLKAMYQARETEAAMKLLERMLLLGKDSLPDDESYDLVIGMHFGVGKNDEAMKVMDTALKSGYMLSTSVFTECVRSCVAKGRTDTLVSIIERCKAVDRNKSLCPSWILCNYIAEVAIQEDNSKLAFYAFEFMFKWITRGEMARPSVIFSVDEGLVVAGLASAARTCSSSLVEGSWTILKQSLRGRKAANPASYIAKINAYASLGNLQKAFTSLHELESAYADSEKEVVEEMLSPFTSLYPLVVACSKKGFETLDEVYFQLESLSQGDTPYKSVAALNCIILGCANTWDLDRAYQTFEAISASFGLTPNIDSYNALLYAFGKVKKTFEATNVFEHLVSIGVKPDSRTYSLLVDAHLINRDPKSALTVVDDMIKAGFEPSRETLKKLRRRCVREMDDENDDQVEALAKKFQIRMGSENRRNMLFNIDYSRGRALNN”, “failed”. Then “MASISNLIILLISFLIGWIILSIPVWLASKAVSRRSSFGNAMIVSLVSIVVYVVLSTFLHFIGAIIGIIIILLIIREIYNVGWGGAIVIGVLSLVIFVIIALILGALHLASLLI”, with “failed”. Then “MASLISFWLFFALSLLQPQQRQFLASKPWQDWLLDGVSLGIQGAIIPLLQLLLVINFYSLIIPHWQHSFNLFAGGQFLLGFVAIDYVYYWSHRALHSKLLFPIHQVHHTVSQMDMVSCARNTFWSSLFLPYVWLNSLIIYLLHDARGYILAISCTYLLDLWRHSSLIINKKCWLHDCLNSWLILPQDHGLHHHQIGKGNFGANLKLWDKIHGTYLKNTLPNQLSISSGMGIKLELTLWQKLFWPLT”, with “failed”; and “MASLLPSTGRGENIAGKLLLLIVALLMCIGVVVVYSSGAGWAEQKFSDPQYFLWRQLTFAIAGMAVIFVVGAIDYHIFRKISKLFLFVSIGLLAILLLLKLAHVIHGAARWLGFGPLKFQASDLAKYAIIFHFSRLLSEKRAYIKDLHDGYYPMLVLLMIVVALVALEPNFSTASIIAIIGFTLMFIGGIRIKYLLATASLLIPIAAVFAIAAPYRVARLVSFGGGEKELSYQVRQALLGLGNGGLFGLGLGASKQRELYLPLSYNDFVFVIIGEEYGFIGALVILLLFSGLFACGIIIAKHAPDLFGRYVAIGVTFAIVFFAFINIAVACHLMPTTGVALPFISYGGTALLFNSLGIGLLVSISRYRKKVETIERAQALLESKGGSL”, with “failed”.

On to “MASLWFGLIASSALVIGAFVGVRFELPKRLLAILLSFAAGSLITALAFELFEDAYEQGGIVRAALGLLAGAIVFTALSALLDRWAQPGGKSTTKAADEIQGSPKLDTDAAASDKAATSASTRGAAGMALLAAVTLDGVPENLALGISLGEGSGGLALLAAIFVSNLPEALVGASSMKSQGRKAGPIMLLWSVCAVLLVAAVVLGAGPLSSAEPATISLPLAFAAGAVIASLADTLMPEAYEHGGPAVALSTAAGFVLSFTLSLA”, for which the protein production result is listed as “failed”. Then “MASMTGGQQMGRGSEEPNPNDGYDYMQHGFDWPGLQEGGTTKYPACSGSNQSPIDINTNQLMEPSSRSGTSAVSLNGLNVDGAQADGITLTNAKVDLEQGMKVTFDQPAANLPTIEIGGTTKSFVPIQFHFHHFLSEHTINGIHYPLELHIVMQEQDPADVATAQLAVIGIMYKYSENGDAFLNSLQTQIEGKIGDGTASYGDTGVSIDNINVKTQLLPSSLKYAGYDGSLTTPGCDERVKWHVFTTPREVTREQMKLFVDVTMGAHAGADVVNNRMIQDLGDREVYKYNY”, with “not failed”.

Take “MASQQEKKQLDERAKKGETVVPGGTGGKSFEAQQHLAEGRSRGGQTRKEQLGTEGYQQMGRKGGLSTGDKPGGEHAEEEGVEIDESKFRTKT”: the protein production entry is reported as “failed”. Then “MASRDAQEPSLHAADPSIVRPCEQHGGVLAGSVSSHPAAAECASHTPTLETGAPCAAGSAPSAPMTDQGARSPRAADSMPASSLERDERARRIACRLPSSAIRLPAFGEAVSRPNAGSSVDATATKASLPSAGDDGLGNSREEQGTTCSEPDLHGVPENDQVEVCVGGRGILRPRSYQRQAPQRCGLPGMAPETAARPDHTARNELEEALARQRARLAEPDASGDIHGRHAG”, with “failed”; and “MASRFQEASLVTSPSYPNAVAWSSENLIAVAAGHLVIIINPALPTGPRGLITISDAELYQIGRVRSQDLLTGGLLPSSLKRERSPCVRSLSWSEIGMSPNHGCLLAVCTAEGRVKLYRPPYSDFCAEWIEIVDISKMLYENLSSMNFGESKNPSTSLSKDQVVEHDHEEDERISSLKARKRRKTSANNINLHEKNYTDRASCSKQDSKAEHNVLEIEVYKQASNGQDRRSLPKALKKCSQEISPQTYVSREALLSSHSVAWSSLLRFSSESSCGNMLRFSLLAIGSKSGSVSIWKVHAPECYHIERSNVSPMVELTAIVQTHSSWVSTMSWGIFGCDSSNPQVVLVTGSCDGSVKIWMSNKEDLQNSVEVYKSSFFLLKEVVAVNPVQVSTLSFVVSNHYNAMHLAIGKGSGSFEVWKCEISTRKFEQIVSTNAHNQVVTGLAWSYDGRCLYSCSQDNYVRSWILCENAISEVPIPANTPGLSSTTDLPDDFLSCLGVALSPGNLAVALVRNFNVELLNPMYQARSQKAAVEFLWNGAQQSGESEDSTETVTEAILGFSKNEFANWESNILWSLKEFNYLNKPLVLWDMVAAMLAFKQSMPEFVELVLTKWLSVSYLGFHDDISMEDLVPKITKRFSDVPSRLLHILNVISRRVMLSELKTEEINRKLQGQRTNDEGEIDLWLKLLQESERELRERLVGLSFSAYLLAESSQGTISPPSWNWRPAGLALLQQWVEINRDIVHSQLETLSLEVKSSRTRSSNSTETALEEEKCPYCAAPVNFHSAEEAFCESSHQKKKKSKDKERCDESHKLERCCVSMQVCPPTPLWFCKCCNRMTLELAPETLFALPSFPSDLKSLPKSSFSKVASKPFCLFCGVLLQRKQPEFLLSASPV”, with “failed”. Then “MASRPSVRHPSHNHPLRGHKAQVEDEIICSGCDLDLLGAYFKCTKSECDYFLHKSCFDLPREIRHKSHPDHPLILLYSPQNNNSTYTCDACGEYGSGFTYNCSICQYDVHVGCVSVPETMKHDEHVHPLALIYKAPCPKDHIFTCDVCDETMPHNLWLYYCQKCDYGAHLHSCVAEEEEKSKKGGRGRGGEGGSGGNGVNRGRSSANSELAAMLKAQREMEQMQIALHLEMQRAKIDKKSRKHMLKMI”, with “failed”; and “MASSSSSPTPSAAAAVSPLTEEELTLTVKWNGKEYTVRICADDSVAELKRRICLLTTVLPKRQKLLYPKIGNKLSDDSLLLSSISFKPSLKMTMIGTVEDDIIVDQAESPEIVDDFELGKEEAVDVKDKEVNKQKLRRRIDQYKINLRTPCRQGKKLLVLDIDYTLFDHRSTAENPLQLMRPYLHEFLTAAYAEYDIMIWSATSMKWVELKMTELGVLNNPNYKVTALLDHLAMITVQSDTRGIFDCKPLGLIWALLPEFYNPGNTIMFDDLRRNFVMNPQNGLTIKPFRKAHANRDTDQELVKLTQYLLTIAELSDLSSLHHSRWESFSQDNVKRRRQE”, with “failed”. Regarding “MASSTRSTRSTPARGKSKGASGNVTPWLWMAFALLVVMIDQFFKVVITRSFQYGESRPITSFFNLVLVYNKGAAFSFLADAGGWQRWFFTLLGVVVGAFIIWLLYRHTGQKLFCLAVSLILGGAVGNVVDRIIHGHVIDFLDFHLRNTHFPAFNVADCAITLGAILLIVDELRRVRRH”, the protein production entry is “failed”.
